Reference: patent US20230272099A1 (Chugai, published 2023)
Where a chain is given by its changes, count along the chain named.

T1: human FcgRIIa type H extracellular domain (human, UniProt P12318 34-217)
T1 construct: extracellular domain; also called hFcgRIIaH
T1 sequence (looked up): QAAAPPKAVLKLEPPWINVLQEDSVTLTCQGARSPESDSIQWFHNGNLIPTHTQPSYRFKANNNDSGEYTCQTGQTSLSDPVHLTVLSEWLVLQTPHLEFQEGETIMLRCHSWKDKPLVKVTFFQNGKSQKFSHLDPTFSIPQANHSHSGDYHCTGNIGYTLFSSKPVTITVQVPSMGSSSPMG

T2: human FcgRIIa type R extracellular domain (human, UniProt P12318 34-217)
T2 construct: extracellular domain; also called hFcgRIIaR
T2 sequence (looked up): T1 sequence (looked up) with H134R

T3: human FcgRIIb extracellular domain (human, UniProt P31994 43-217)
T3 construct: extracellular domain; also called hFcgRIIb
T3 sequence (looked up): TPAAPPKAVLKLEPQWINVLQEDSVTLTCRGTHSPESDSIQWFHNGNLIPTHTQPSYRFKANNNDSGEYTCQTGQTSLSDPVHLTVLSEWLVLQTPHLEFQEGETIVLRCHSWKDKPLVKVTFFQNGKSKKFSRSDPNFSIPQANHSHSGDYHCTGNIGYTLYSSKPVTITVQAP

B1: dBBAT053-P253 (antibody, human IgG1, lambda, V domains shown)
VH: EVQLVESGGDLVKPGGGLRLSCAASGFTFSTFTMNWVRQAPGKGLEWVSSISSRSNYIYYADSVKGRFTISRDNAKNSLYLQMNSLRAEDTAVYYCARFGLKNEMNWVFDYWGQGTLVTVSS
VL: QSALTQPPSASGSPGQTVTISCTGTSSDVGFYNYVSWYQQHPGKAPKLMIYEGSKKPSGVPDRFSGSKSGNTASLTVSGLQAEDEADYFCSVYSYIYYVLFGGGTKLTVLG
B2: dBBAT134-P253 (antibody, human IgG1, lambda, V domains shown)
VH: B1 VH with T31S, F32Y, I58A, Y59D, F99Y, L101A
VL: B1 VL with S27T, G53V, K56R, V92S, S94T, I96D, Y97Q, Y98Q, V99L, L100M
B3: dBBAT007-P253 (antibody, human IgG1, lambda, V domains shown)
VH: B1 VH with T31G, F32Y, I58A, Y59H, E104F
VL: B1 VL with E52G, G53T, K56R, V92S, S94A, I96D, Y97A, Y98Q, V99L, L100V
B4: dBBAT015-P253 (antibody, human IgG1, lambda, V domains shown)
VH: B1 VH with F32Y, N56T, I58A, Y59T, F99Y, E104S, M105L
VL: B1 VL with S27T, G53V, V92T, I96D, Y97E, Y98S, L100A
B5: A375-SCF060a/B167-Lamlib (antibody, human IgG1, lambda)
heavy: EVQLVESGGGLVKPGGSLRLSCAASGFTFSTFTMNWVRQAPGKGLEWVSSISSKSTYIEYADSFKVRFTISRDNAKNSLYLQMNSLRAEDTAVYYCARYGAKNFLNWVFDYWGQGTLVTVSSASTKGPSVFPLAPSSKSTSGGTAALGCLVKDYFPEPVTVSWNSGALTSGVHTFPAVLQSSGLYSLSSVVTVPSSSLGTQTYICNVNHKPSNTKVDKRVEPKSCDKTHTCPPCPAPELWNGPSVFLFPPKPKDTLMISRTPEVTCVVVDVSDEDPEVKFNWYVDGVEVHNAKTKPREELYNSTYRVVSVLTVLHRDWLNGKEYKCKVSNTALPKPIEKTISKAKGQPREPQVYTLPPSREEMTKNQVSLTCLVKGFYPSDIAVEWESNGQPENNYKTTPPVLDSDGSFFLYSKLTVDKSRWQQGNVFSCSVMHEALHNHYTQKSLSLSP
light: QSALTQPPSASGSPGQTVTISCTGTRYDVGYYEYVSWYQQHPGKAPKLMIYETSKRLSGVPDRFSGSKSGNTASLTVSGLQAEDEADYYCSSYRYEHQVSFGGGTKLTVLGQPKAAPSVTLFPPSSEELQANKATLVCLISDFYPGAVTVAWKADSSPVKAGVETTTPSKQSNNKYAASSYLSLTPEQWKSHRSYSCQVTHEGSTVEKTVAPTECS
notes: copies: 2 + 2
B6: A375-TT14/B167-Lamlib (antibody, human IgG1, lambda)
heavy: EVQLVESGGGLVKPGGSLRLSCAASGFTFSTFTMNWVRQAPGKGLEWVSSISSKSTYIEYADSFKVRFTISRDNAKNSLYLQMNSLRAEDTAVYYCARYGAKNFLNWVFDYWGQGTLVTVSSASTKGPSVFPLAPSSKSTSGGTAALGCLVKDYFPEPVTVSWNSGALTSGVHTFPAVLQSSGLYSLSSVVTVPSSSLGTQTYICNVNHKPSNTKVDKKVEPKSCDKTHTCPPCPAPEYLGGDSVFLFPPKPKDVLMISRTPEVTCVVIDVSHEDPEVKFNWYVDGVEVHNAKTKPREEQYNSTYRVVSVLPVLHQDWLNGKEYKCKVSNKALPKPIEKTISKAKGQPREPQVYTLPPSREEMTKNQVSLTCLVKGFYPSDIAVEWESNGQPENNYKTTPPVLDSDGSFFLYSKLTVDKSRWQQGNVFSCSVMHEALHNHYTQKSLSLSP
light: B5 light
notes: copies: 2 + 2
B7: A375-TT16/B167-Lamlib (antibody, human IgG1, lambda)
heavy: B6 heavy with G242D, I269V
light: B5 light
notes: copies: 2 + 2

The binders below were run against T4, biotinylated Fc-fused monkey CD137 (monkey, biotin on the AviTag) (assay: ELISA, 1 mM ADP, 0.156 ug/mL).
T4 construct: also called cyCD137-Fc-BAP
T4 sequence (chain, as listed by the source limits assumed): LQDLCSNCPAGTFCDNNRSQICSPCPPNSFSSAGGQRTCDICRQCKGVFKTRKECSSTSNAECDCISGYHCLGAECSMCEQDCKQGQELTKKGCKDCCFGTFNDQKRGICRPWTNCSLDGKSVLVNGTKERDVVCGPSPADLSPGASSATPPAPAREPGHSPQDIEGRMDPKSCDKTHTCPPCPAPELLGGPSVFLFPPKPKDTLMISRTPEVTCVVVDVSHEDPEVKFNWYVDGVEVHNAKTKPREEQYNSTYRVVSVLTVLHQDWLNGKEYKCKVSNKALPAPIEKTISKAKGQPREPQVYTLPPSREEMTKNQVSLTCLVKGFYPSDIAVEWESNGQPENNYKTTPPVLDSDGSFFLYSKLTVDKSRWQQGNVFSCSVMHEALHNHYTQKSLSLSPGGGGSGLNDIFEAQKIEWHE
Design: reference not given here
Method: (§1) The obtained antibodies were evaluated for binding to monkey CD137 by ELISA. The cyCD137-Fc-BAP prepared in Reference Example 1 was immobilized on Streptawell microtiter plates. After the unbound antigen was removed from the plates by washing each well of the plates with the wash buffer, the wells were blocked with 150 μL of a blocking buffer (TBS with 2% BSA) for 1 hour or more. The blocking buffer was removed from each well, and 100 μL of the purified antibodies diluted in TBS with a final concentration of 1 mM ADP, or TBS with a final concentration 1 mM ADP was added to each well. The plate to which the antibody was added was shaken at 600 rpm for 1 hour. The AP-conjugated anti-human lambda antibodies (BETHYL) diluted in TBS with a final concentration of 1 mM ADP were added to each well after washing with a wash buffer (TBS with 0.1% Tween20) containing a final concentration of 1 mM ADP. After incubation for one hour and washing with a wash buffer containing a final concentration of 1 mM […], BluePhos phosphate substrate (KPL) was added. Color development was measured by absorbance at 600 nm. Samples with a concentration-dependent increase in the absorbance ratio can be said to be bound to monkey CD137.

Question: Which absorbance ratio does the source give for B1 here?
Answer: 1

Question: For B2, which absorbance ratio is on record?
Answer: 2.2

Question: With B3 as the binder, how does the absorbance ratio read?
Answer: 22

Question: Which absorbance ratio does the source give for B4 here?
Answer: 3.6

These binders were tested against T4, biotinylated Fc-fused monkey CD137 (assay: ELISA, 1 mM ADP, 0.039 ug/mL).
Design: reference not given here
Method: as §1

Question: For B1, which absorbance ratio is on record?
Answer: 0.7

Question: For B2, which absorbance ratio is on record?
Answer: 1.2

Question: How did the absorbance ratio turn out when B3 was run?
Answer: 0.7

Question: For B4, which absorbance ratio is on record?
Answer: 1.5

These binders were tested against T4, biotinylated Fc-fused monkey CD137 (assay: ELISA, 1 mM ADP, 0.010 ug/mL).
Design: reference not given here
Method: as §1

Question: How did the absorbance ratio turn out when B1 was run?
Answer: 0.8

Question: How did the absorbance ratio turn out when B2 was run?
Answer: 1

Question: For B3, which absorbance ratio is on record?
Answer: 3.8

Question: How did the absorbance ratio turn out when B4 was run?
Answer: 1.1

These binders were tested against T1, human FcgRIIa type H extracellular … (assay: SPR 25C).

Question: With B5 as the binder, how does the “binding per 1RU antibody” value read?
Answer: 0.0463 RU

Question: And the “relative binding (A375-G1T3/B167-Lamlib=1)” value (“relative binding” below)?
Answer: 0.82

Question: Which results are given for B6?
Answer: binding per 1RU antibody: 0.0042 RU; relative binding (A375-G1T3/B167-Lamlib=1): 0.07

Question: What does the source list for B7?
Answer: binding per 1RU antibody: 0.0126 RU; relative binding (A375-G1T3/B167-Lamlib=1): 0.22

The binders below were run against T2, human FcgRIIa type R extracellular … (assay: SPR 25C).

Question: B5 was tested. Which “binding per 1RU antibody” value did it give?
Answer: 0.0459 RU

Question: What about the “relative binding” value of the same binder?
Answer: 0.99

Question: Which “binding per 1RU antibody” value does the source give for B6 here?
Answer: 0.0067 RU

Question: What about the “relative binding” value of the same binder?
Answer: 0.14

Question: Which results are given for B7?
Answer: binding per 1RU antibody: 0.0359 RU; relative binding (A375-G1T3/B167-Lamlib=1): 0.77

The binders below were run against T5, human FcgRIIIa V158 extracellular domain (human, UniProt P08637 17-208) (assay: SPR 25C).
T5 construct: extracellular domain; also called hFcgRIIIaV
T5 sequence (P08637 17-208 F176V): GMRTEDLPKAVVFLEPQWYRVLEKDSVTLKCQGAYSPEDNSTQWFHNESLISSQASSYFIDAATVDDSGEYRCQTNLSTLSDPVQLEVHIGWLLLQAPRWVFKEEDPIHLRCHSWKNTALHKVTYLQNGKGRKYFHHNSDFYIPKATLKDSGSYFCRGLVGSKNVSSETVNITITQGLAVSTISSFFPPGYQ

Question: B5 was tested. Which “binding per 1RU antibody” value did it give?
Answer: 0.0008 RU

Question: And the “relative binding” value?
Answer: 0.01

Question: With B6 as the binder, how does the “binding per 1RU antibody” value read?
Answer: 0.0003 RU

Question: What about the “relative binding” value of the same binder?
Answer: 0

Question: B7 was tested. Which “binding per 1RU antibody” value did it give?
Answer: -0.0002 RU

Question: What about the “relative binding” value of the same binder?
Answer: 0

Each binder was assayed against T6, human FcgRIIIa F158 extracellular domain (human, UniProt P08637 17-208) (assay: SPR 25C).
T6 construct: extracellular domain; also called hFcgRIIIaF
T6 sequence (P08637 17-208): as the sequence (P08637 17-208 F176V) above, with V160F counted along it

Question: What does the source list for B5?
Answer: binding per 1RU antibody: 0.0011 RU; relative binding (A375-G1T3/B167-Lamlib=1): 0.05

Question: For B6, which “binding per 1RU antibody” value is on record?
Answer: 0 RU

Question: What about the “relative binding” value of the same binder?
Answer: 0

Question: Which “binding per 1RU antibody” value does the source give for B7 here?
Answer: 0.0001 RU

Question: And the “relative binding” value?
Answer: 0

Each binder was assayed against T3, human FcgRIIb extracellular domain (assay: SPR 25C).

Question: Which “binding per 1RU antibody” value does the source give for B5 here?
Answer: 0.0472 RU

Question: And the “relative binding” value?
Answer: 4.31

Question: Which “binding per 1RU antibody” value does the source give for B6 here?
Answer: 0.0805 RU

Question: What about the “relative binding” value of the same binder?
Answer: 7.34

Question: Which “binding per 1RU antibody” value does the source give for B7 here?
Answer: 0.109 RU

Question: And the “relative binding” value?
Answer: 9.94

These binders were tested against T7, human FcgRIa extracellular domain (human, UniProt P12314 16-292) (assay: SPR 25C).
T7 construct: extracellular domain; also called hFcgRIa
T7 sequence (P12314 16-292): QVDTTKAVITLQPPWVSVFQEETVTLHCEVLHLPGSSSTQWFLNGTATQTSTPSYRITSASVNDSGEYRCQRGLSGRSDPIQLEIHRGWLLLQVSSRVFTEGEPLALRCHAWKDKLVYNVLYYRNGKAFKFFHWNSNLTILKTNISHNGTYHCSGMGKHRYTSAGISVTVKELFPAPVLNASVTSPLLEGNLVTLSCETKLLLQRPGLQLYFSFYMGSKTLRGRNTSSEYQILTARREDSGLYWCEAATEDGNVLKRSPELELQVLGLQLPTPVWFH

Question: Which “binding per 1RU antibody” value does the source give for B5 here?
Answer: 0.0021 RU

Question: What about the “relative binding” value of the same binder?
Answer: 0.03

Question: Which results are given for B6?
Answer: binding per 1RU antibody: 0.0045 RU; relative binding (A375-G1T3/B167-Lamlib=1): 0.05

Question: B7 was tested. Which “binding per 1RU antibody” value did it give?
Answer: 0.0034 RU

Question: And the “relative binding” value?
Answer: 0.04

Each binder was assayed against T4, biotinylated Fc-fused monkey CD137 (assay: ELISA, 1 mM ADP, 0.625 ug/mL).
Design: reference not given here
Method: as §1

Question: For B1, which absorbance ratio is on record?
Answer: 2.3

Question: With B2 as the binder, how does the absorbance ratio read?
Answer: 5.8

Question: With B3 as the binder, how does the absorbance ratio read?
Answer: 29.2

Question: B4 was tested. Which absorbance ratio did it give?
Answer: 14.4

What follows are binders tested against human FcRn (human, UniProt P55899 24-290; P61769 21-119) (assay: SPR 25C pH 6.0, steady state).
Chain of human FcRn (P55899 24-290 limits assumed, chain 1 of 2): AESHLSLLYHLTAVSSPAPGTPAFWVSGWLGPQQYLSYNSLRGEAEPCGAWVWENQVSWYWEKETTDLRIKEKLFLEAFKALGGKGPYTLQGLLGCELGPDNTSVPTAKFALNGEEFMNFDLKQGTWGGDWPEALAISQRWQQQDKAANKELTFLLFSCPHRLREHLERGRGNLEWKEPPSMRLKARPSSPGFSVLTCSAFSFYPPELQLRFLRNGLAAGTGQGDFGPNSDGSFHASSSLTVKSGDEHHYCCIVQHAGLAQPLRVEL
Chain of human FcRn (P61769 21-119 limits assumed, chain 2 of 2): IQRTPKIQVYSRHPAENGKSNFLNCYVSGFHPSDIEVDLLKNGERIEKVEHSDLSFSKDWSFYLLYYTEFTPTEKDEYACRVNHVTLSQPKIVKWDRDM
In short: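 Antibody (~400 RU) captured on anti-Fab-lambda sensor chip, human FcRn injected as analyte.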

Question: For B5, which Kd is on record?
Answer: 1010 nM

Question: Which Kd does the source give for B6 here?
Answer: 1770 nM

Question: With B7 as the binder, how does the Kd read?
Answer: 1510 nM

What follows are binders tested against T4, biotinylated Fc-fused monkey CD137 (assay: ELISA, 1 mM ADP, 10 ug/mL).
Design: reference not given here
Method: as §1

Question: Which absorbance ratio does the source give for B1 here?
Answer: 17.9

Question: How did the absorbance ratio turn out when B2 was run?
Answer: 33.9

Question: How did the absorbance ratio turn out when B3 was run?
Answer: 30.5

Question: With B4 as the binder, how does the absorbance ratio read?
Answer: 42.9

The binders below were run against T4, biotinylated Fc-fused monkey CD137 (assay: ELISA, 1 mM ADP, 2.5 ug/mL).
Design: reference not given here
Method: as §1

Question: How did the absorbance ratio turn out when B1 was run?
Answer: 6.9

Question: Which absorbance ratio does the source give for B2 here?
Answer: 16.8

Question: B3 was tested. Which absorbance ratio did it give?
Answer: 30.2

Question: For B4, which absorbance ratio is on record?
Answer: 32.4
